The record followed here is publication PMC3604124, “Glyceraldehyde-3-Phosphate Dehydrogenase Interacts with Proapoptotic Kinase Mst1 to Promote Cardiomyocyte Apoptosis” (PLoS ONE, 2013).

This assay deals with T1, Myc-tagged Mst1 (UniProt Q13043 1-487).
T1 sequence (looked up): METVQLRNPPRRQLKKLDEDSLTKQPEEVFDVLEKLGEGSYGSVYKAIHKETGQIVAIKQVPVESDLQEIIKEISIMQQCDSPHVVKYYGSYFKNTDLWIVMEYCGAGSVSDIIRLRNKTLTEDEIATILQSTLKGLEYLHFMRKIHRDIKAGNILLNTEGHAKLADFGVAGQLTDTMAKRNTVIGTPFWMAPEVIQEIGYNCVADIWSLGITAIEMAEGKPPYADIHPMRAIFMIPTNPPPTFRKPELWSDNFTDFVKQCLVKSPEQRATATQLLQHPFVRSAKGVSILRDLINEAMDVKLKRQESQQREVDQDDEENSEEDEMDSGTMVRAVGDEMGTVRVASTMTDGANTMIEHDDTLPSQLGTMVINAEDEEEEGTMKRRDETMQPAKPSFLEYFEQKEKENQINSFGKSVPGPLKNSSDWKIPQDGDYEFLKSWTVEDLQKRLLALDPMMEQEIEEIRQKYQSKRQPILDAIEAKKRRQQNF
In words: cell-based or functional assay.

B1: FLAG-tagged GAPDH (enzyme)
chain: not shown
In the case of B1, the “in vitro kinase assay of Mst1 immunoprecipitated from HEK293T cells transfected with Myc-Mst1 with or without Flag-GAPDH: Mst1 autophosphorylation and MBP phosphorylation, increase with GAPDH” value was approximately 2 fold.
